Results published in IntAct's records for PubMed 31515488.

B1: Protein FAM9B (Homo sapiens), Q8IZU0 (parent)
chain: MAAWGKKHAGKDPVRDECEERNRFTETREEDVTDEHGEREPFAETDEHTGANTKKPEDTAEDLTAKRKRMKMDKTCSKTKNKSKHALRKKQLKRQKRDYIHSLKLLNVLEEYITDEQKEEEEEEGEEEELIRIFQEQQKKWQQYRSVRRERLKEMKLLRDQFVKALEDFEDLCDRVFSDEDSELDN
partner: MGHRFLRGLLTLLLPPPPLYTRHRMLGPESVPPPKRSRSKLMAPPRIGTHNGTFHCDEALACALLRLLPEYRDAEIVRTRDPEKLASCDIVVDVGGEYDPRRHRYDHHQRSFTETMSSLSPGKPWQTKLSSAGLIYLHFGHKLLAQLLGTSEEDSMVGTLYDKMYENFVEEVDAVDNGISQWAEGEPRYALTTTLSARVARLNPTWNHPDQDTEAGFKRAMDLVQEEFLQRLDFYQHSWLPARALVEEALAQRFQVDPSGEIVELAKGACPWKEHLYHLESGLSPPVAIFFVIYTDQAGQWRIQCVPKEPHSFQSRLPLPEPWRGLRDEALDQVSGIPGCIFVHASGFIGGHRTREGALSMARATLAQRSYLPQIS
B2: Zinc finger CCHC domain-containing protein 10 (Homo sapiens), Q8TBK6 (parent)
chain: MATPMHRLIARRQAFDTELQPVKTFWILIQPSIVISEANKQHVRCQKCLEFGHWTYECTGKRKYLHRPSRTAELKKALKEKENRLLLQQSIGETNVERKAKKKRSKSVTSSSSSSSDSSASDSSSESEETSTSSSSEDSDTDESSSSSSSSASSTTSSSSSDSDSDSSSSSSSSTSTDSSSDDEPPKKKKKK
partner: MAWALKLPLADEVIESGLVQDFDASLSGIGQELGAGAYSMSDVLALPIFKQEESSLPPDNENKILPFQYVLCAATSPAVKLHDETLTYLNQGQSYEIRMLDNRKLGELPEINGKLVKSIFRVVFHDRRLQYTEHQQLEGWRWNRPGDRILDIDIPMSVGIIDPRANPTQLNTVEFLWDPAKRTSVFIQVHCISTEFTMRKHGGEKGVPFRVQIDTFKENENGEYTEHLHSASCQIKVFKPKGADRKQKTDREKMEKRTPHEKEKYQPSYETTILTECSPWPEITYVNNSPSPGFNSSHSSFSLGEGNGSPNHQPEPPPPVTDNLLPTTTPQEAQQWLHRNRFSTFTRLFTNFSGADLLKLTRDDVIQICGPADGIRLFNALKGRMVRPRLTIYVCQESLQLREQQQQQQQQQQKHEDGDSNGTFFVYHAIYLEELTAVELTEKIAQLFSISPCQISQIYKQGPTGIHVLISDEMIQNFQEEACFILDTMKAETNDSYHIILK
B3: Protein dispatched homolog 1 (Homo sapiens), Q96F81 (parent)
chain: MAMSNGNNDFVVLSNSSIATSAANPSPLTPCDGDHAAQQLTPKEATRTKVSPNGCLQLNGTVKSSFLPLDNQRMPQMLPQCCHPCPYHHPLTSHSSHQECHPEAGPAAPSALASCCMQPHSEYSASLCPNHSPVYQTTCCLQPSPSFCLHHPWPDHFQHQPVQQHIANIRPSRPFKLPKSYAALIADWPVVVLGMCTMFIVVCALVGVLVPELPDFSDPLLGFEPRGTAIGQRLVTWNNMVKNTGYKATLANYPFKYADEQAKSHRDDRWSDDHYEREKREVDWNFHKDSFFCDVPSDRYSRVVFTSSGGETLWNLPAIKSMCNVDNSRIRSHPQFGDLCQRTTAASCCPSWTLGNYIAILNNRSSCQKIVERDVSHTLKLLRTCAKHYQNGTLGPDCWDMAARRKDQLKCTNVPRKCTKYNAVYQILHYLVDKDFMTPKTADYATPALKYSMLFSPTEKGESMMNIYLDNFENWNSSDGVTTITGIEFGIKHSLFQDYLLMDTVYPAIAIVIVLLVMCVYTKSMFITLMTMFAIISSLIVSYFLYRVVFHFEFFPFMNLTALIILVGIGADDAFVLCDVWNYTKFDKPHAETSETVSITLQHAALSMFVTSFTTAAAFYANYVSNITAIRCFGVYAGTAILVNYVLMVTWLPAVVVLHERYLLNIFTCFKKPQQQIYDNKSCWTVACQKCHKVLFAISEASRIFFEKVLPCIVIKFRYLWLFWFLALTVGGAYIVCINPKMKLPSLELSEFQVFRSSHPFERYDAEYKKLFMFERVHHGEELHMPITVIWGVSPEDNGNPLNPKSKGKLTLDSSFNIASPASQAWILHFCQKLRNQTFFYQTDEQDFTSCFIETFKQWMENQDCDEPALYPCCSHWSFPYKQEIFELCIKRAIMELERSTGYHLDSKTPGPRFDINDTIRAVVLEFQSTYLFTLAYEKMHQFYKEVDSWISSELSSAPEGLSNGWFVSNLEFYDLQDSLSDGTLIAMGLSVAVAFSVMLLTTWNIIISLYAIISIAGTIFVTVGSLVLLGWELNVLESVTISVAVGLSVDFAVHYGVAYRLAPDPDREGKVIFSLSRVGSAMAMAALTTFVAGAMMMPSTVLAYTQLGTFMMLIMCISWAFATFFFQCMCRCLGPQGTCGQIPLPKKLQCSAFSHALSTSPSDKGQSKTHTINAYHLDPRGPKSELEHEFYELEPLASHSCTAPEKTTYEETHICSEFFNSQAKNLGMPVHAAYNSELSKSTESDAGSALLQPPLEQHTVCHFFSLNQRCSCPDAYKHLNYGPHSCQQMGDCLCHQCSPTTSSFVQIQNGVAPLKATHQAVEGFVHPITHIHHCPCLQGRVKPAGMQNSLPRNFFLHPVQHIQAQEKIGKTNVHSLQRSIEEHLPKMAEPSSFVCRSTGSLLKTCCDPENKQRELCKNRDVSNLESSGGTENKAGGKVELSLSQTDASVNSEHFNQNEPKVLFNHLMGEAGCRSCPNNSQSCGRIVRVKCNSVDCQMPNMEANVPAVLTHSELSGESLLIKTL
partner: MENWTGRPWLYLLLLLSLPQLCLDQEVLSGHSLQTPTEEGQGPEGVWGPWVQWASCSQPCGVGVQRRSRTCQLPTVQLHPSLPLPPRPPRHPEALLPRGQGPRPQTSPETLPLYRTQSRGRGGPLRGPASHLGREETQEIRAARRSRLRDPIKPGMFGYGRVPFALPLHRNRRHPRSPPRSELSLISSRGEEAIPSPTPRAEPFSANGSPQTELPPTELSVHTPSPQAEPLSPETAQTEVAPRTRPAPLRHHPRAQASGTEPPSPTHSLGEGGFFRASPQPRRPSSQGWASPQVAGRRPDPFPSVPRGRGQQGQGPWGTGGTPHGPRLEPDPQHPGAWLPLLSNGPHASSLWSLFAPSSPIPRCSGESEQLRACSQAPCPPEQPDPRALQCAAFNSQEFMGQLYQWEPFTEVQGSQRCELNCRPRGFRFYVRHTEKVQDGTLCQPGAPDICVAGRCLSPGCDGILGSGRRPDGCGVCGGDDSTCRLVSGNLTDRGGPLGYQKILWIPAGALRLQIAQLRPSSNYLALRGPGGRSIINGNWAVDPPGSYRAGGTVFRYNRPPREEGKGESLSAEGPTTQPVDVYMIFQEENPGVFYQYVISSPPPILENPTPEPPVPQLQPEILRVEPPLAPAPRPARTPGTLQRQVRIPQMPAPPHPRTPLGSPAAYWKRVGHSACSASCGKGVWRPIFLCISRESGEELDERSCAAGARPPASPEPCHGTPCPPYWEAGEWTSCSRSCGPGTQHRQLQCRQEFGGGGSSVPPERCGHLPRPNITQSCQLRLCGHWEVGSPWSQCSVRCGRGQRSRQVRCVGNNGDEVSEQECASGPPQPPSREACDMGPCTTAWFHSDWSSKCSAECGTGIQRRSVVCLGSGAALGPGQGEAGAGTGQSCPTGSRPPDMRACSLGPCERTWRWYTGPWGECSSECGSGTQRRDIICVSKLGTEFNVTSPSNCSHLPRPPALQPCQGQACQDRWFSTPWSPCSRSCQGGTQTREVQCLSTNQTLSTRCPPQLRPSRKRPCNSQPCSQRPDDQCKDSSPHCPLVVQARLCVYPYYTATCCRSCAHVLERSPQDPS
B4: Proto-oncogene serine/threonine-protein kinase mos (Homo sapiens), P00540 (parent)
chain: MPSPLALRPYLRSEFSPSVDARPCSSPSELPAKLLLGATLPRAPRLPRRLAWCSIDWEQVCLLQRLGAGGFGSVYKATYRGVPVAIKQVNKCTKNRLASRRSFWAELNVARLRHDNIVRVVAASTRTPAGSNSLGTIIMEFGGNVTLHQVIYGAAGHPEGDAGEPHCRTGGQLSLGKCLKYSLDVVNGLLFLHSQSIVHLDLKPANILISEQDVCKISDFGCSEKLEDLLCFQTPSYPLGGTYTHRAPELLKGEGVTPKADIYSFAITLWQMTTKQAPYSGERQHILYAVVAYDLRPSLSAAVFEDSLPGQRLGDVIQRCWRPSAAQRPSARLLLVDLTSLKAELG
partner: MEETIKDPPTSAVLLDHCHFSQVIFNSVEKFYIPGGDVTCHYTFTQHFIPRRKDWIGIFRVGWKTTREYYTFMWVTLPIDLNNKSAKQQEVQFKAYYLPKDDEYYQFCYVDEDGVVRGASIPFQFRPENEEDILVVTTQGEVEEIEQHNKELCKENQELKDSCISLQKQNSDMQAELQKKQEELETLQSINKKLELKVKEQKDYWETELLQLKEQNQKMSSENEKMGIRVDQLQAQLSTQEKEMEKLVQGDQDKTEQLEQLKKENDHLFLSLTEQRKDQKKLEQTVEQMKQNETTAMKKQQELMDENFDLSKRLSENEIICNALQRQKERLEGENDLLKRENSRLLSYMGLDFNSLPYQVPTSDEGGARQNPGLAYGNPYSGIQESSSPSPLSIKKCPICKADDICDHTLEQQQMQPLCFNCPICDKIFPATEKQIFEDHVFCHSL

Variants of: B1
Conditions: with myg1_human MYG1, Q9HB07

| effect of a mutation on the interaction | Variant |
| --- | --- |
| with no effect | R23H |

Variants of: B2
Conditions: with tfcp2_human TFCP2, Q12800

| effect of a mutation on the interaction | Variant |
| --- | --- |
| with no effect | S153P |

Variants of: B3
Conditions: with atl4_human ADAMTSL4, Q6UY14

| effect of a mutation on the interaction | Variant |
| --- | --- |
| with no effect | E103D |
| with no effect | E103K |

Variants of: B4
Conditions: with caco2_human CALCOCO2, Q13137

| effect of a mutation on the interaction | Variant |
| --- | --- |
| with no effect | A105S |
| disrupting interaction strength | A123T |
